The DeepSol protein solubility set

Assay: soluble on expression in E. coli; label from the status in PepcDB or PDB records

Row | Sequence | soluble on expression in E. coli
1 | MFSAVHPDSRRDCKKYRYSQTSHQNYWFLKYSEFNLLGKRKIKGNFLHLFHAEEKVLFQSVMLKDQTAKTEKRTQEITCQLSKLANFEENNRKKLQDTERENKKLRNLINSLELKLVSSPENLPLQILFFLISENDELLERVFHFHCATFTKLSDFQLLFFPTPMYVANEYAKSGRNLWNEAIIADAIPEVSGPEAARMKQITDSIKYKESGFLIDRRVNASALIIQSNCSIFNSNF | not soluble
2 | MFSENLKKCRKQKKLTQQNMADKLGITRPAYTAYELGSREPDYKTLINISNILDVSLDYLLKGESNEKVFQDEAKKVLNDPETFLAAKDGEVTDEILQAALEIITEQLKERRKSDK | not soluble
3 | MFSLSFPSSSSALLPSLVAFDSSRRLSLQPKKLNRLQSHLFSPQHLSFSQSNVSRYRAFCVSSSSPPEGTVSVVDFHEKDWSFLESMEIDSTEHTQKIERIIKAGELSESSRVLVSISSETFVDRLVESSPSQLLLIVHDSLFTLACIKEKYDKVKCWQGEMIYVPEKWSPLDAVFLYFLPALPFDLDELFKTLSQRCSSGARVVISHPQGRLGLEQQRKEFSDVVVSDLPDESTLSNVAEKHSFELTQFVDEQGLYLAVLKSSKQ | soluble
4 | MFSSAHSGLLEKLFHYIDLHQDEFVQTLKEWVAIESDSVQPVPRLRQKLFQMMALAADKLRNLGAGVESIDLGSQQMPDGQSLPIPPILLAELGSDPEKPTVCFYGHLDVQPAQKDDGWLTDPYTLTEVDGKLYGRGATDNKGPVLAWINAVSTFRALQQDLPVNIKLILEGMEEAGSIALEELVMREKDHFFSSVDYIVISDNLWLSQRKPALTYGTRGNCYFTVEVKCRDQDFHSGTFGGILNEPMADLVALLGSLVDSSGHILIPGIYDQMAPITEGEKTMYKNIDMDLEEYQNINQVEKFLFDTKEELLMHLWRYPSLSIHGIEGAFDEPGTKTVIPGRVLGKFSIRLVPTMSPSVVEKQVTQHLEAVFSKRNSFNKMAVSMVLGLHPWTANVNDTQYLAAQRTIKTVFGVNPDMIRDGSTIPIAKIFQAITQKSVMMLPLGAVDDGEHSQNEKINRWNYIQGSKLFAAFFLELSKQHSGHQMPSSVY | not soluble
5 | MFSYHELITIESVARLGSFSQAADELHKVPSAISYTIKSVEDRLTVVLFTRLHRRVELTAAGTYFVDQARKLLKDMEEIRFNTQRVANGWQQSVSVALDNVVRENSVNQLVRDFYATFPDIELQLTMEVFNGVWDALMTGRADIGIGATATIPIGGDFSYRPMGELAWDFIVSINHPLASFEHDIPNEELVKYPAICLEDTSQILPKRSTWLLDNQRRLIVPNWHSAEQCFIDGLGVGVIPNHRAKRLLETGQVISKKIEHHIAPSPCCLAWNNNNQSVAIQWLLDYLGDSDKLNSEWLKEF | not soluble
6 | MFTGLVEAIGVVKDVQGTIDNGFAMKIEAPQILDDCHTGDSIAVNGTCLTVTDFDRYHFTVGIAPESLRLTNLGQCKAGDPVNLERAVLSSTRMGGHFVQGHVDTVAEIVEKKQDGEAIDFTFRPRDPFVLKYIVYKGYIALDGTSLTITHVDDSTFSIMMISYTQSKVIMAKKNVGDLVNVEVDQIGKYTEKLVEAHIADWIKKTQA | soluble
7 | MFVLNIFSTTHKQRGLNRASCPPLGNYSNNHTLAYRVKCISEETRDSNSLVSSLNRKLWKTSVAGSDIPMIYSPFLEDMQNTLFASFETVEDYPLSEFLASAQSSKKPARIESWCYQCPKFRKIRLTYLDAGVAAQVFNAVWYPISSLELPILGVDFLSFGGKNVLCVMDFQPLMNDQYYLDKYIQPLHPIRERYADLAGRMSSRFYDENRFFSKELLFGRFDSTKPIYERLFPAFREYLDLYITLAKQTVEDDKSRSIIWQLQCEYDRYSAEKDPAMSLFRSYFGSTWAHRFVYEFLFENSRYESSLDNKT | soluble
8 | MFYFRNLDGYTFFSFMKQKPRRNLFIGVPPLEGTCTKEVVHEAIKEILFYSYC | not soluble
9 | MFYLSELEHSLRVPPHLLNLPLEDAIKSVLQNVFLDKVLADLGLCVSIYDIKSVEGGFVLPGDGAATYKVGLRIVVFRPFVGEVIAAKFKESDANGLRLTLGFFDDIYVPAPLMPKPNRCEPDPYNRKQMIWVWEYGEPKEDYIVDDACQIKFRVESISYPSVPTERAEDAKPFAPMVVTGNMDDDGLGPVSWWDSYEQVDQEE | soluble
10 | MGAFFVGVIWHFPVLAFCPLPDKPQWVAVRQVVDGDTLRLVDGRSVRLIGINAPEMGRKGRTSEPYAEAARRRLQALVKANDDRVGLVPGVEGKDKYGRTLAHIYSRNGDNLEAQLLSEGLGYRVAIAPNVRLSGCQQLAEQAARQAGVGLWRHSPVVAASDVRQSGFAVVRGRIEGIERNRGGVWLTLGSTLVLQVPARLQRNFPASFFDNLKGRQVEARGWVLDRSRRGGLKPGQRRWVLPLTDPSMLERISGLEHHHHHH | not soluble
11 | MGAQNSKRKDLKNINDEDYAHFMEKLKKHTDGKDKMTRDQFVAMFIPILGEYSSQFYFRLVKNEPQGVLLAKTILKCIDTGLGHFDQLADMLRFCFGDQKDQIMRNVVKIFCEGNKFTREDQVRLYDYFETENTKPVSELESFFSMCPLFAYCASFIFQRLLDKTGDSKMPILSDKTHLMGNIDQLVLNSHLPFDRRKNWTLLYSNMKHGQSFSQLVKCINGEGPCMIVIRSMKGRRFGFFASQGFLAGPQYRGTAECFLFQLAPKIATFDATGRTENYVYLNYQQQQHPNGLGIGGTESVWPLFIHEEFGGGTCQKNSSSFEPCHIAEEDEFKIKTIEAWRPGDKPQKSFEEQILLEERSPEKSIIDKDPEARAVLELAGKSMHSEAYRDPAPLLDGE | not soluble
12 | MGCGFSRQHVVKTNVSSFDRELLDLKIQRDSLQQYEQRLSDSLKNYIKLARRLVAENQRQQALVVLQVKHALQKSIEKAQNMRFNLEQVLSEIELKQIETDYVLKLRTGTKLLQSIQKTLSIEEIEHLLEETKEAIEFQNKVTEVLGSFSLMEIDESCEEELEQLETAMFPPVPKRLEKTMTPQVTENMQVKSETAKEYSKQESILLPS | soluble
13 | MGDITNEMIWQAIKELAEQLQQTNGQVQQLSQQVQQTNEQVQQLGQQIQHLNSQVQQLNHQVQQTHEQVGQLAKQVQQTNEQLNQLSQQVADMDKRLTDVANGQNILVEELFENKKEIKRVKTALNMY | not soluble
14 | MGDNQVTGGDIHKLWMTAHMDISAVEDAYIKLTEQLDGDVAEGDEGKYGKAFDSWNIYREIVQLALFRTAVSARATRLALDLAVSEFTFVDGDAANGITDAGKEFLEAVGDENQTPPEYVVEPEGDPVAPLGNDE | not soluble
15 | MGDPVEGKGGPQPRGGKKKDADDEKNAWEEGDFIDEKELKGALQLGVLKTADSVALRAGERNGLDMVVEEDVVSQVGALVWDTVAQDWADDLARFVAHAGRQRVNMDDISLLTRRNPDLLRAACELAGVDCPQETSGGTKGKPRKRKKDDVTVAPMLRAAPSAPNSQNAPLLAPIQEEDDENDDDDEITILDDQILHTPQQKSYSKKAKFSEEEAPSSRKRISTSTPKTTAERTLKFPDEITPIRQPNDLQEIVVFNRANLSAIEEEEQQDSFDAFGTTGGNDSSSKTITNTSSLLRQAEEHRSSIVEPTKDRIEKERLDRLVPDDEEFENASVDSFDNFNAEPDPAPAPALAPVPEKRTSVFSKKICSFDFDDDDGDDSFDEPVVVVAEVPKLPVQQQKTPKASGSESKKKPEKRPESSTPSVFSKKNKTIQLDDHDSFDDFDFGI | not soluble
16 | MGDYENVLMVKPKVFVYRIPPIGTSGHKAADWNLDSPAWTGRMRLVAIGKRLEMRLEDGETCDLYAKCPIDAHPGNAIEAVSDSSRYFVIRLQNDNGQQAFVGCGFQERGDAFDFNVTLQDHFRYIERSAELEKQDLSAGPSLDLAFKEGQTISINIGKKDKSAVSRPRPAPGASTGGLVPLLPPPPGAGSMIRNSRPSTTTTTASSSLSSAFAAPPPAPSSSTSTTATSGNLLDF | not soluble
17 | MGESFTQAVVEGPQPKPSRFQFVPVPGEFTRGRWKCRDSYHPNAETLEFEKNKSKEEETNPDKISVFFKLRQQQQEPEPEPEPPQPPPQESTIQVTSVKSTRPDTGDPGDSEVVTTDSTESIIITRKNGVTIVRKTSNSLLLPDEKYDQIRQLSIDDFENKEKKQQVPPTPMNTPPASLAVVDTSIQSTTSETTPGHSSSRKPSKEDSSPFDASSATPAPSQLETPQQQKPTTTRHFQVEPVVLSEPSTPAPVAPAPSIETLTSTSPPVTQQLAPSLSEPTFQVIQTEESKNMSMDSVKNVVDAAALSAPAPAPLSQSDRLNHVDEVEGTTPSNVMITVSSAAAALEKKEEAAFAAAGSLDSCGIPISGGGAAAQTSAPHSTPYGTPKDTHIQQQQQPVVFEEILTANGPPPQPSSPLLPALITTTTSAPTIAPASSPIINASGSSIPAASTSGISLFPSGGVTSSLTTPSTTADTHTPIDNKIEQAMELVKTHLTYAVREEVDTLRNTIAELEYQMRESQYECTYYRQNCAPDLIEQASSFVHQQMASHQRPAARRAVSTAGIFDGSSSGGGGGQASSGASASASSAHMRNLQNQIQQMKQITPITTNTCINSTSTSTTAYTSTPTASIPAATAITTTTAPPKPSPTTSESSLITGDLGAPAGAVAQKMTTTNN | not soluble
18 | MGFAFKRGISTPDLALITRQLATLVQSGMPLEECLRAVAEQSEKPRIRTMLVAVRAKVTEGYTLSDSLGDYPHVFDELFRSMVAAGEKSGHLDSVLERLADYAENRQKMRSKLQQASENLYFQ | soluble
19 | MGFDLDVEKKKENRNIPQANNLKIKVIGVGGAGNNAINRMIEIGIHGVEFVAVNTDLQVLEASNADVKIQIGENITRGLGAGGRPEIGEQAALESEEKIREVLQDTHMVFITAGFGGGTGTGASPVIAKIAKEMGILTVAIVTTPFYFEGPERLKKAIEGLKKLRKHVDTLIKISNNKLMEELPRDVKIKDAFLKADETLHQGVKGISELITKRGYIRLTSRFARIESVMKDAGAAILGIGVGKGEHRAREAAKKAMESKLIEHPVENASSIVFNITAPSNIRMEEVHEAAMIIRQNSSEDADVKFGLIFDDEVPDDEIRVIFIATRFPDEDKILFPEGDIPAIYRYGLEGLL | soluble
20 | MGGDADSPRERIEALAEDDHVEMRRAVDSAITSDAAAIIVIAGVGGATGSVIAPKLTDALQRIYDRPVYAVSVLPATHEEVPPENPARAIAAFESAANAQLVFDNDAWVDDRNDVEDVTDGLNAELAMRLGALFSAGEAVTAESVGQRVVDASEVISTLDEGGLATIGFARQPLGTDGDDGSLLDRARELVGMDETTVDEVESIKAVETTLRQATNGRLTFDCPRDAARSGLLVVSGPPEWLHQTAVSDGQSWLADEIGSVQLRTGDNPMPGGDELTILVLLGGIRGAPRIKEIQAATDLEHHHHHH | not soluble
21 | MGGGHFAASNALKTAFLQKDPQAKVEIVDTLKIISPILDKLAVGTYLKAIKTVPFIYGLVYDSTDKDPPTRFSKAIYEKFYFAFYKLYNIISELNPDVIIGTHPSPIDMVSQLKKRGNINVPIISIVTDFTIHPYWINEYADYIIVHHENLVYEAVKKGAPGKKVIPLGIPLEHHHHHH | not soluble
22 | MGGSHHHHHHGMASALAAKVDLSTSTDWKEAKSFLKGLSDKQREEHYFCKDFVRLKKIPTWKEMAKGVAVKVEEPRYKKDKQLNEKISLLRSDITKLEVDAIVNAANSSLLGGGGVDGCIHRAAGPLLTDECRTLQSCKTGKAKITGGYRLPAKYVIHTVGPIAYGEPSASQAAELRSCYLSSLDLLLEHRLRSVAFPCISTGVFGYPCEAAAEIVLATLREWLEQHKDKVDRLIICVFLEKDEDIYRSRLPHYFPVA | not soluble
23 | MGGSHHHHHHGMASALQRVSGLLSWTLSRVLWLSGLSEPGAARQPRIMEEKALEVYDLIRTIRDPEKPNTLEELEVVSESCVEVQEINEEEYLVIIRFTPTVPHCSLATLIGLCLRVKLQRCLPFKHKLEIYISEGTHSTEEDINKQINDKERVAAAMENPNLREIVEQCVLEPD | not soluble
